Laboratory results reported in patent US20040235157A1.

Target: Type I interferon receptor (endogenous, on human promonocytic PIL5 cells derived from U937) (human) (UniProt P17181)
Experiment: cell-based or functional assay

UniProt P17181, sequence (P17181 28-557, chain 1 of 2): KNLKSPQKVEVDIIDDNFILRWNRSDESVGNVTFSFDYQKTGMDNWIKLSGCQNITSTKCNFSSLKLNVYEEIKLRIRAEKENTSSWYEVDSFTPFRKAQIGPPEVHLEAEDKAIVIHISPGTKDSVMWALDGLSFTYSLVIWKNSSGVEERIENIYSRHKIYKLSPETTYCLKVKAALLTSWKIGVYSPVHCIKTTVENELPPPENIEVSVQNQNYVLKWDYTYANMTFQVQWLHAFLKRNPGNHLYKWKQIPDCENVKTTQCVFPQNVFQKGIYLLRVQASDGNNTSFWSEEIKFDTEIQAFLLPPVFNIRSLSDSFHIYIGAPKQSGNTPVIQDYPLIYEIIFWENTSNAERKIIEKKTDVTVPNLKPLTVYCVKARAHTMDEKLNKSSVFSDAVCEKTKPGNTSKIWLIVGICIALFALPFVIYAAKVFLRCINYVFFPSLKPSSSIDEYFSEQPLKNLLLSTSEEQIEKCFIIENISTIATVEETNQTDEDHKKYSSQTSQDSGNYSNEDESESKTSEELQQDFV
UniProt P17181, sequence (P48551 27-515, chain 2 of 2, further chain): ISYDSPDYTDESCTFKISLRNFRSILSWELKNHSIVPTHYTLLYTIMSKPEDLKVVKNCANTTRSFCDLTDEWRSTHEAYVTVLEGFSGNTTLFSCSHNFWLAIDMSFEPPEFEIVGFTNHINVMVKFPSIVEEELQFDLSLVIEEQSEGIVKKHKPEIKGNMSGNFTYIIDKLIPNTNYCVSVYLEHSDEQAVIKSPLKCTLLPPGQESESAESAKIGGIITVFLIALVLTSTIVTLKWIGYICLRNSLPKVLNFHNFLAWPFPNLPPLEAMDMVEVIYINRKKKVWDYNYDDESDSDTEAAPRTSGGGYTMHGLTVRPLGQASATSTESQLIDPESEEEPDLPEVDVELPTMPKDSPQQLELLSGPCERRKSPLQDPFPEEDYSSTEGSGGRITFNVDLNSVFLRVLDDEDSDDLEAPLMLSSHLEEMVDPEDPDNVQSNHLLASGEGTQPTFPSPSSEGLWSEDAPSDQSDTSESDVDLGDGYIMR

Row | Substance | luciferase gene reporter assay using PIL5 cells (lowest detectable IFN activity) [IU/ml]
1 | IFNβ (from UniProt P01574 22-187) (ligand) | < 1
2 | human IFN α (standard preparation of human interferon alpha) (ligand) | < 1
